Test results: patent US5683983

Target: extracellular domain (ECD) of the IL-5 receptor α chain (IL-5R α) (human) (UniProt Q01344)
Experiment: grade under 'Affinity'; IC50 values of 500 nm or less; competition with [125I] IL-5 for IL-5Rα ECD (Example 3), assay not given

| Binder | IC50 [nM] |
| --- | --- |
| DGYVCVEWARCPTCK [D G Y V C V E W A R C P T C K (SEQ ID NO:7)] | < 500 |
| DGYVCVEWARCPMCT [D G Y V C V E W A R C P M C T (SEQ ID NO:8)] | < 500 |
| DGFVCVEWARCPNCR [D G F V C V E W A R C P N C R (SEQ ID NO:9)] | < 500 |
